Assay results taken from the RNAGym collection of RNA variant scans (doi:10.7554/elife.90254).

B1: LINE1-mini (parent)
chain: GGCAGAGCUCAACACAGCGUGGCAAAGUGGCUGUGGCUAGACUGCC

Variants of: B1
Assay: self-cleavage, relative activity (ratio to wild type); higher = more cleavage; in vitro, sequencing; the parent is a self-cleaving ribozyme

Variant | self-cleavage
GGCAGAGCUCAACACAGCGUGGCAAAGUGGCUGUGGCUUGAAUGCC | 0.1
GGCAGAGCUCAACACAGCGUGGCAAAGUGGCUGUGGCUUGAGUGCC | 0.03
GGCAGAGCUCAACACAGCGUGGCAAAGUGGCUGUGGCUUGAUUGCC | 0.23
GGCAGAGCUCAACACAGCGUGGCAAAGUGGCUGUGGCUGGACUGGC | 0.09
GGCAGAGCUCAACACAGCGUGGCAAAGUGGCUGUGGCUGGACUGUC | 0.06
GGCAGAGCUCAACACAGCGUGGCAAAGUGGCUGUGGCUGGACUGAC | 0.1
GGCAGAGCUCAACACAGCGUGGCAAAGUGGCUGUGGCUCGACUACC | 0.08
GGCAGAGCUCAACACAGCGUGGCAAAGUGGCUGUGGCUCGACUCCC | 0.04
GGCAGAGCUCAACACAGCGUGGCAAAGUGGCUGUGGCUCGACUUCC | 0.1
GGCAGAGCUCAACACAGCGUGGCAAAGUGGCUGUGGCUCGACUGCU | 0.2
GGCAGAGCUCAACACAGCGUGGCAAAGUGGCUGUGGCUCGACUGCG | 0.17
GGCAGAGCUCAACACAGCGUGGCAAAGUGGCUGUGGCUCGACUGCA | 0.13
GGCAGAGCUCAACACAGCGUGGCAAAGUGGCUGUGGCUCGAAUGCC | 0.1
GGCAGAGCUCAACACAGCGUGGCAAAGUGGCUGUGGCUCGAUUGCC | 0.05
GGCAGAGCUCAACACAGCGUGGCAAAGUGGCUGUGGCUCGAGUGCC | 0.06
GGCAGAGCUCAACACAGCGUGGCAAAGUGGCUGUGGCUAAACUUCC | 0.08
GGCAGAGCUCAACACAGCGUGGCAAAGUGGCUGUGGCUAAACUACC | 0.19
GGCAGAGCUCAACACAGCGUGGCAAAGUGGCUGUGGCUAAACUCCC | 0.08
GGCAGAGCUCAACACAGCGUGGCAAAGUGGCUGUGGCUACAUUGCC | 0.07

Variant | self-cleavage
GGCAGAGCUCAACACAGCGUGGCAAAGUGGCUGUGGCUACAGUGCC | 0.1
GGCAGAGCUCAACACAGCGUGGCAAAGUGGCUGUGGCUACAAUGCC | 0.07
GGCAGAGCUCAACACAGCGUGGCAAAGUGGCUGUGGCUAAACCGCC | 0.08
GGCAGAGCUCAACACAGCGUGGCAAAGUGGCUGUGGCUAAACGGCC | 0.09
GGCAGAGCUCAACACAGCGUGGCAAAGUGGCUGUGGCUAAACAGCC | 0.06
GGCAGAGCUCAACACAGCGUGGCAAAGUGGCUGUGGCUACACUGCG | 0.08
GGCAGAGCUCAACACAGCGUGGCAAAGUGGCUGUGGCUACACUGCU | 0.08
GGCAGAGCUCAACACAGCGUGGCAAAGUGGCUGUGGCUACACUGCA | 0.1
GGCAGAGCUCAACACAGCGUGGCAAAGUGGCUGUGGCUCGACCGCC | 0.08
GGCAGAGCUCAACACAGCGUGGCAAAGUGGCUGUGGCUCGACAGCC | 0.04
GGCAGAGCUCAACACAGCGUGGCAAAGUGGCUGUGGCUUGACUGAC | 0.18
GGCAGAGCUCAACACAGCGUGGCAAAGUGGCUGUGGCUUGACUGGC | 0.24
GGCAGAGCUCAACACAGCGUGGCAAAGUGGCUGUGGCUUGACUGUC | 0.85
GGCAGAGCUCAACACAGCGUGGCAAAGUGGCUGUGGCUAACCUGCC | 0.13
GGCAGAGCUCAACACAGCGUGGCAAAGUGGCUGUGGCUAAGCUGCC | 0.08
GGCAGAGCUCAACACAGCGUGGCAAAGUGGCUGUGGCUAAUCUGCC | 0.26
GGCAGAGCUCAACACAGCGUGGCAAAGUGGCUGUGGCUAAACUGGC | 0.13
GGCAGAGCUCAACACAGCGUGGCAAAGUGGCUGUGGCUAAACUGUC | 0.16
GGCAGAGCUCAACACAGCGUGGCAAAGUGGCUGUGGCUAAACUGAC | 0.12

Variant | self-cleavage
GGCAGAGCUCAACACAGCGUGGCAAAGUGGCUGUGGCUUGUCUGCC | 0.67
GGCAGAGCUCAACACAGCGUGGCAAAGUGGCUGUGGCUUGCCUGCC | 0.13
GGCAGAGCUCAACACAGCGUGGCAAAGUGGCUGUGGCUUGGCUGCC | 0.14
GGCAGAGCUCAACACAGCGUGGCAAAGUGGCUGUGGCUGGACAGCC | 0.04
GGCAGAGCUCAACACAGCGUGGCAAAGUGGCUGUGGCUGGACGGCC | 0.12
GGCAGAGCUCAACACAGCGUGGCAAAGUGGCUGUGGCUGGACCGCC | 0.04
GGCAGAGCUCAACACAGCGUGGCAAAGUGGCUGUGGCUGAACUGCC | 0.05
GGCAGAGCUCAACACAGCGUGGCAAAGUGGCUGUGGCUGCACUGCC | 0.08
GGCAGAGCUCAACACAGCGUGGCAAAGUGGCUGUGGCUGUACUGCC | 0.14
GGCAGAGCUCAACACAGCGUGGCAAAGUGGCUGUGGCUUGACUGCA | 0.75
GGCAGAGCUCAACACAGCGUGGCAAAGUGGCUGUGGCUUGACUGCG | 0.5
GGCAGAGCUCAACACAGCGUGGCAAAGUGGCUGUGGCUUGACUGCU | 0.46
GGCAGAGCUCAACACAGCGUGGCAAAGUGGCUGUGGCUUGACUACC | 0.18
GGCAGAGCUCAACACAGCGUGGCAAAGUGGCUGUGGCUUGACUUCC | 0.12
GGCAGAGCUCAACACAGCGUGGCAAAGUGGCUGUGGCUUGACUCCC | 0.09
GGCAGAGCUCAACACAGCGUGGCAAAGUGGCUGUGGCUGGACUGCG | 0.08
GGCAGAGCUCAACACAGCGUGGCAAAGUGGCUGUGGCUGGACUGCA | 0.14
GGCAGAGCUCAACACAGCGUGGCAAAGUGGCUGUGGCUGGACUGCU | 0.07
